In article PMC11369174 (Molecular Systems Biology, 2024):
Where no end group is shown, it is not given here.

Legend:
Details in all cases: both partners purified
[1] = biological target: T1, Ras-GTPase-activating protein-binding protein 1 (G3BP1) NTF2 domain (human, UniProt Q13283 11-133); experiment: fluorescence polarisation; displacement: unlabelled peptide titrated onto a complex of FITC-labelled peptide (10 nM) and protein domain (1-2x KD); 50 mM sodium phosphate buffer pH 7.4 (CASK: plus 100 mM NaCl); KD calculated from IC50; technical triplets
T1 construct: G3BP1, NTF2 domain; limits in Dataset EV2; source: E. coli BL21 DE (Gold), purified
T1 sequence (Q13283 11-133): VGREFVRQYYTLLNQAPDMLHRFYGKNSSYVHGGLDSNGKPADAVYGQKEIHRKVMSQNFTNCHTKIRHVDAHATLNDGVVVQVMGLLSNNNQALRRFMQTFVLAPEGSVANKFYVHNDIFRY

[2] = biological target: T2, E3 ubiquitin-protein ligase NEDD4 (NEDD4) WW2 domain, GST-tagged (human); experiment: fluorescence polarisation
T2 construct: also called NEDD4 WW2-GST
T2 sequence (P46934 whole entry, the tested form may be a part): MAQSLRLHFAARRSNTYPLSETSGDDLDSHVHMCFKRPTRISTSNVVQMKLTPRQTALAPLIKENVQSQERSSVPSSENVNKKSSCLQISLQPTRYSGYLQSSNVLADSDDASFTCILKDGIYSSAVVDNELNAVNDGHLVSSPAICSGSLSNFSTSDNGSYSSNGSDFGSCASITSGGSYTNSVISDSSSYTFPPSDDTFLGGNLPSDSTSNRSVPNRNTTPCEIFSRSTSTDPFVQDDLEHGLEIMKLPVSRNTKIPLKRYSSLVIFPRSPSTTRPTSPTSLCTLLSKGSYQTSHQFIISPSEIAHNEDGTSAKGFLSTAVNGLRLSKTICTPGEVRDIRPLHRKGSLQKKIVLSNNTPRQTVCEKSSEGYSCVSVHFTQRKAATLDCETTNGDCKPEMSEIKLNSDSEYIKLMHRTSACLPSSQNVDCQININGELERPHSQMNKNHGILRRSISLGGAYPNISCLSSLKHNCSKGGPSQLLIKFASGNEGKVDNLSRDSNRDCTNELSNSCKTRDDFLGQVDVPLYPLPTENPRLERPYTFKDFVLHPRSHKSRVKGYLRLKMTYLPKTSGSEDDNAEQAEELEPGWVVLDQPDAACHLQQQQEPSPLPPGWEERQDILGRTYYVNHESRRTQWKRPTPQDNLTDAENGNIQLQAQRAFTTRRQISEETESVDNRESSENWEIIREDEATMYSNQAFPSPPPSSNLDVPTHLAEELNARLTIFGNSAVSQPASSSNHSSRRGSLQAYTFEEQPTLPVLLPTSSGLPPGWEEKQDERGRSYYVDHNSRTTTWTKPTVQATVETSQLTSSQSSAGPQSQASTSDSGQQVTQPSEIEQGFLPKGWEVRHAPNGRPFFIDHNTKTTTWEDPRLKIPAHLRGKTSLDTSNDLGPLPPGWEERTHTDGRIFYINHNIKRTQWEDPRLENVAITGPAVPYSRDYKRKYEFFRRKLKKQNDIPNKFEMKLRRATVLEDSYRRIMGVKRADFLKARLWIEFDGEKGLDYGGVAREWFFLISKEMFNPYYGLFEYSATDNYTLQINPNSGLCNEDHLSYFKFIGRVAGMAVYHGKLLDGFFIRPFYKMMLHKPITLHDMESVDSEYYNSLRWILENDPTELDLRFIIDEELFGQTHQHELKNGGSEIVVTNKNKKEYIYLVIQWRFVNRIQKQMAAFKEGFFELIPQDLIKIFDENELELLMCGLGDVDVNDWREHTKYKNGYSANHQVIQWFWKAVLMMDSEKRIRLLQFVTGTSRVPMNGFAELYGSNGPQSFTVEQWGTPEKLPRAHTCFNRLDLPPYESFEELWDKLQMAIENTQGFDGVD

[3] = biological target: T3, peripheral plasma membrane protein CASK (CASK) kinase domain (human, UniProt O14936 12-276); experiment: fluorescence polarisation; displacement: unlabelled peptide titrated onto a complex of FITC-labelled peptide (10 nM) and protein domain (1-2x KD); 50 mM sodium phosphate buffer pH 7.4 (CASK: plus 100 mM NaCl); KD calculated from IC50; technical triplets
T3 construct: CASK, kinase domain; limits in Dataset EV2; source: E. coli Rosetta, purified
T3 sequence (looked up): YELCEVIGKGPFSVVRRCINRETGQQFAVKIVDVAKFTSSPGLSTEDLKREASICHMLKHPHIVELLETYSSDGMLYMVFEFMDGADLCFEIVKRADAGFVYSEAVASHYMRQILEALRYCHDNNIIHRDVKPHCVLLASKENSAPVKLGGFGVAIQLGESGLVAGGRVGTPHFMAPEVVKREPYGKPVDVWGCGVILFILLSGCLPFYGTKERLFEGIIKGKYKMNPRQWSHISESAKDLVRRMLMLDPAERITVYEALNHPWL

[4] = biological target: T4, FITC-MYC (also: FITC label, position not given here); experiment: fluorescence polarisation; saturation binding: dilution series of the protein domain added to 10 nM FITC-labelled peptide; 50 mM sodium phosphate pH 7.4, 0.05% Tween (protein dialysed in 50 mM sodium phosphate with 1 mM DTT; CASK kinase domain with 100 mM NaCl in addition); quadratic fit; technical triplets
T4 chain: PAAKRVKLD

[5] = biological target: T5, FITC-NCOR2 (also: FITC label, position not given here); experiment: as above
T5 chain: PKRTYDMMEGRVGRAI

[6] = biological target: T6, clathrin N-terminal domain (CLTC NTD) (human); experiment: fluorescence polarisation; displacement: unlabelled peptide titrated onto a complex of FITC-labelled peptide (10 nM) and protein domain (1-2x KD); 50 mM sodium phosphate buffer pH 7.4 (CASK: plus 100 mM NaCl); KD calculated from IC50; technical triplets
T6 chain: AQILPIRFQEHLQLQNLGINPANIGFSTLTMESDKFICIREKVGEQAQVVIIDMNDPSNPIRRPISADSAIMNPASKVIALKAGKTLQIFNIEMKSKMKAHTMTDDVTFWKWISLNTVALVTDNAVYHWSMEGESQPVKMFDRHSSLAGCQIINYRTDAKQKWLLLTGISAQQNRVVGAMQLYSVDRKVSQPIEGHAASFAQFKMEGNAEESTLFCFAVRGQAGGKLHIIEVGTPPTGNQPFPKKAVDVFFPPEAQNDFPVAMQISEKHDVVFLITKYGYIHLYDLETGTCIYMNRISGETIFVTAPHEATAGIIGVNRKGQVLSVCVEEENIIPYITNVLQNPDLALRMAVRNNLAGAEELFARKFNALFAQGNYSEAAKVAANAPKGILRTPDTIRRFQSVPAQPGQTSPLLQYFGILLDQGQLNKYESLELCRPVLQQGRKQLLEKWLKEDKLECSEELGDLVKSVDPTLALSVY

[7] = biological target: T7, Ras-GTPase-activating protein-binding protein 2 (G3BP2) NTF2 domain (human, UniProt Q9UN86 11-133); experiment: as above
T7 construct: G3BP2, NTF2 domain; limits in Dataset EV2; source: E. coli BL21 DE (Gold), purified
T7 sequence (looked up): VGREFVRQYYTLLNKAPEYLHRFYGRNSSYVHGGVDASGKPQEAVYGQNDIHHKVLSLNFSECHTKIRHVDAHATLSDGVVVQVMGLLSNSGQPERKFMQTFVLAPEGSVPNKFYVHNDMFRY

[8] = biological target: T8, ADP-ribosylation factor-binding protein GGA1 (GGA1) VHS domain (human, UniProt Q9UJY5 17-147); experiment: as above
T8 construct: GGA1, VHS domain; limits in Dataset EV2; source: E. coli BL21 DE (Gold), purified
T8 sequence (looked up): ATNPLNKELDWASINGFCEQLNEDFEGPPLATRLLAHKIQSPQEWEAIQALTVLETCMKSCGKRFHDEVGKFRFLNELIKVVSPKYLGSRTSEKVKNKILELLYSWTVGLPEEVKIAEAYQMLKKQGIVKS

[9] = biological target: importin subunit α-8 (KPNA7) ARM domain; experiment: fluorescence polarisation; displacement as a1, with a FITC-labelled probe sampling the major pocket of the ARM domain (KPNA4, KPNA7)
Sequence of importin subunit α-8 (KPNA7) ARM domain (chain, as listed by the source): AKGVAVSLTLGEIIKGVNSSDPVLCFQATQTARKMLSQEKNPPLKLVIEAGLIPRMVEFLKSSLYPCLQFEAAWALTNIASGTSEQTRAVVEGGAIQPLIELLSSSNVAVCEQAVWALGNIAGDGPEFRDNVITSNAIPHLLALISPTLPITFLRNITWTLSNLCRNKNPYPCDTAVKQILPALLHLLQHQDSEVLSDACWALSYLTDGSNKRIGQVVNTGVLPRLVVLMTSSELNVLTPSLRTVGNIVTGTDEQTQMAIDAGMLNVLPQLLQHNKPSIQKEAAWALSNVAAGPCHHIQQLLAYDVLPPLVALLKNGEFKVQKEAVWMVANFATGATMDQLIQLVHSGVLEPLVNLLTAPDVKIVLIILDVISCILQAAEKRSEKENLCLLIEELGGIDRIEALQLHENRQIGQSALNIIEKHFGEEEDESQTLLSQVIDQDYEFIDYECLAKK

[10] = biological target: T9, Ras-GTPase-activating protein-binding protein 2 (G3BP2) NTF2 domain (human, UniProt Q9UN86 11-133); experiment: fluorescence polarisation
T9 sequence (looked up): T7 sequence (looked up)

[11] = biological target: T10, Ras-GTPase-activating protein-binding protein 1 (G3BP1) NTF2 domain (human, UniProt Q13283 11-133); experiment: fluorescence polarisation
T10 construct: also called G3BP1 NTF1
T10 sequence (Q13283 11-133): as the sequence (Q13283 11-133) above

[12] = biological target: T11, Clathrin N-terminal domain (CLTC NTD) (human); experiment: fluorescence polarisation
T11 construct: also called Clathrin NTD

[13] = biological target: T12, PPIA (human, UniProt P62937 1-165); experiment: fluorescence polarisation; saturation binding: dilution series of the protein domain added to 10 nM FITC-labelled peptide; 50 mM sodium phosphate pH 7.4, 0.05% Tween (protein dialysed in 50 mM sodium phosphate with 1 mM DTT; CASK kinase domain with 100 mM NaCl in addition); quadratic fit; technical triplets
T12 construct: PPIA, human; source: E. coli BL21 (DE3) Gold, purified (glutathione or Ni2+ beads)
T12 sequence (P62937 whole entry, the tested form may be a part): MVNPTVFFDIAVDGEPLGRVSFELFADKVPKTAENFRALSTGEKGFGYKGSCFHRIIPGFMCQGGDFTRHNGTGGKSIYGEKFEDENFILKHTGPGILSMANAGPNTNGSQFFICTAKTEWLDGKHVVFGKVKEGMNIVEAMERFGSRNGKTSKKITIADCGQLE

[14] = biological target: T13, importin subunit α-3 (KPNA4) ARM domain (human); experiment: fluorescence polarisation; displacement as a1, with a FITC-labelled probe sampling the minor pocket of the KPNA4 ARM domain
T13 chain: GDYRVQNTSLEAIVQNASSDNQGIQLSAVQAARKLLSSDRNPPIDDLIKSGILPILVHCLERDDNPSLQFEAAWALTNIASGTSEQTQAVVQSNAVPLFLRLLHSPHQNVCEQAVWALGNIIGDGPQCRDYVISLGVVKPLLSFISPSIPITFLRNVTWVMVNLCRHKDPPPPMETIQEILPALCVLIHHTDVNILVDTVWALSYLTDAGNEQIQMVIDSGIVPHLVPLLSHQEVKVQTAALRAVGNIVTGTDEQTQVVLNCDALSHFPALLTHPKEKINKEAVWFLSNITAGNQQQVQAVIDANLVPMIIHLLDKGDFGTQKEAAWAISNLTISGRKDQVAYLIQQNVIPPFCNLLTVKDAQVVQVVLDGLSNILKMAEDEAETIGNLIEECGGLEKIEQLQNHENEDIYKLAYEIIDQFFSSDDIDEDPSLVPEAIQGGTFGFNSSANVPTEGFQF

[15] = biological target: T13, importin subunit α-3 (KPNA4) ARM domain; experiment: fluorescence polarisation; displacement as a1, with a FITC-labelled probe sampling the major pocket of the ARM domain (KPNA4, KPNA7)
[16] = biological target: T14, CREBBP KIX (human, UniProt Q92793 587-666); experiment: fluorescence polarisation; displacement: unlabelled peptide titrated onto a complex of FITC-labelled peptide (10 nM) and protein domain (1-2x KD); 50 mM sodium phosphate buffer pH 7.4 (CASK: plus 100 mM NaCl); KD calculated from IC50; technical triplets
T14 construct: CREBBP, KIX domain; limits in Dataset EV2; source: E. coli BL21 DE (Gold), purified
T14 sequence (Q92793 587-666): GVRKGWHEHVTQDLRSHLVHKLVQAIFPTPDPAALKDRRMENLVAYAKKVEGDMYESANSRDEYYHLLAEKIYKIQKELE

B1: NSD1 1793-1808 L1797P peptide (peptide)
peptide: EFPVPFFGSNDYLWTH
notes: also called NSD1 L1797P mutant; source: synthetic peptide, bought: Genecust
Q: B1 was tested. Which Kd [1] did it give?
A: Its Kd is 49 µM.

Q: Which Kd [2] does the source give for TDSPPPYSAG (also: FITC label, position not given here) [FITC-UL56(HHV-2)] here?
A: The Kd was 4.1 µM.

B2: MAPT 717-731 R723W peptide (peptide)
peptide: YSGDTSPWHLSNVSST
notes: microtubule-associated protein tau residues 717-731; also called MAPT R723W mutant; source: synthetic peptide, bought: Genecust
Q: How did the Kd [3] turn out when B2 was run?
A: The Kd was 39 µM.

B3: Importin subunit alpha-3 (KPNA4) ARM domain (domain or fragment)
chain: T13 chain
Q: What does the source list for B3?
A: Kd [4]: 0.008 µM; Kd [5]: 0.03 µM

B4: BCL11A_(44-56) wild-type peptide (peptide)
peptide: DLLTCGQAQMNFPY
notes: BCL11A residues 44-56; source: synthetic peptide, bought: Genecust
Q: With B4 as the binder, how does the Kd [6] read?
A: The Kd was 1100 µM.

B5: BCL11A_(44-56) C48F peptide (peptide)
peptide: DLLTFGQAQMNFPY
notes: BCL11A residues 44-56; also called C47F BCL11A; source: synthetic peptide, bought: Genecust
Q: How did the Kd [7] turn out when B5 was run?
A: Its Kd is 215 µM.

Q: And the Kd [6]?
A: The Kd was 361 µM.

B6: Importin subunit alpha-8 (KPNA7) ARM domain (domain or fragment)
chain: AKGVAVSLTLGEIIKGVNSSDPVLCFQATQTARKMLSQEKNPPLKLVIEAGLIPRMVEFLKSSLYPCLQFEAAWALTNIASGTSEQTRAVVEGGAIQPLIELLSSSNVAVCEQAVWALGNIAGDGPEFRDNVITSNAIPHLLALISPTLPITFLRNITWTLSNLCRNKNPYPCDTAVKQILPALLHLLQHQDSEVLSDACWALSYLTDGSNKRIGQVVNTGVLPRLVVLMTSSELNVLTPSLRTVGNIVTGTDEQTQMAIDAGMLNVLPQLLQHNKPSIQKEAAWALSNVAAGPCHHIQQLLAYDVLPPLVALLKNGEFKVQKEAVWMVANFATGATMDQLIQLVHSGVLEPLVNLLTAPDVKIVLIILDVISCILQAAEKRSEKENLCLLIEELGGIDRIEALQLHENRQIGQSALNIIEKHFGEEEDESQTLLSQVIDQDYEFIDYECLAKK
Q: With B6 as the binder, how does the Kd [4] read?
A: Its Kd is 7.5 µM.

Q: And the Kd [5]?
A: Its Kd is 57 µM.

B7: myosin-9 peptide (MYH9_(1419-1433)) wild-type (peptide)
peptide: YQQELDDLLVDLDHQR
notes: MYH9 residues 1419-1433; also called MYH9 D1424H wild-type; source: synthetic peptide, bought: Genecust
Q: With B7 as the binder, how does the Kd [8] read?
A: Its Kd is 101 µM.

B8: MYH9_(1419-1433) D1424H peptide (peptide)
peptide: YQQELDHLLVDLDHQR
notes: MYH9 residues 1419-1433; also called MYH9 D1424H mutant; source: synthetic peptide, bought: Genecust
Q: B8 was tested. Which Kd [8] did it give?
A: Its Kd is 306 µM.

B9: CDC45_(152-166) R157C peptide (peptide)
peptide: EPSEKCTRLEEEIVEY
notes: also called CDC45 R157C mutant; source: synthetic peptide, bought: Genecust
Q: Which “KD, major pocket” value [9] does the source give for B9 here?
A: Its value is 380 µM.

B10: MITF 258-271 Y265C peptide (peptide)
peptide: SGNLIDLCGNQGLPY
notes: also called MITF Y265C mutant; source: synthetic peptide, bought: Genecust
Q: With B10 as the binder, how does the Kd [6] read?
A: Its Kd is 206 µM.

B11: CDC45_(152-166) wild-type peptide (peptide)
peptide: EPSEKRTRLEEEIVEY
notes: also called CDC45 R157C wild-type; source: synthetic peptide, bought: Genecust
Q: Which “KD, major pocket” value [9] does the source give for B11 here?
A: The value was 6.6 µM.

Q: APRITFGGPSDS (also: FITC label, position not given here) [FITC-N_SARS-CoV-2] was tested. Which Kd [10] did it give?
A: The Kd was 5.4 µM.

Q: And the Kd [11]?
A: The Kd was 2.51 µM.

Q: Which Kd [12] does the source give for SVDLITFDSV (also: FITC label, position not given here) [FITC-NSP3] here?
A: The Kd was 21 µM.

Q: For EQVEYGPLQAQM (also: FITC label, position not given here) [FITC-SPHK2], which Kd [13] is on record?
A: The Kd was 42 µM.

B12: ABRAXAS1_(349-364) R361Q peptide (peptide)
peptide: LDLDDRWQFKRSQLLD
notes: also called ABRAXAS1 R361Q mutant; source: synthetic peptide, bought: Genecust
Q: How did the “KD, minor pocket” value [14] turn out when B12 was run?
A: Its value is 297 µM.

Q: And the “KD, major pocket” value [15]?
A: The value was 75 µM.

B13: KMT2A 2847-2861 wild-type peptide (peptide)
peptide: SDIMDFVLKNTPSMQY
notes: also called KMT2A L2854Q wild-type; source: synthetic peptide, bought: Genecust
Q: With B13 as the binder, how does the Kd [16] read?
A: Its Kd is 380 µM.

B14: KMT2A 2847-2861 L2854Q peptide (peptide)
peptide: SDIMDFVQKNTPSMQY
notes: also called KMT2A L2854Q mutant; source: synthetic peptide, bought: Genecust
Q: Which Kd [16] does the source give for B14 here?
A: The Kd was 340 µM.

B15: CTNNB1_(27-42) S33F peptide (peptide)
peptide: QQSYLDFGIHSGATTT
notes: β-catenin residues 27-42; also called CTNNB1 S33F mutant; source: synthetic peptide, bought: Genecust
Q: B15 was tested. Which Kd [1] did it give?
A: The Kd was 57 µM.

B16: FANCA 1-16 S4L peptide (peptide)
peptide: MSDLWVPNSASGQDPG
notes: FANCA residues 1-16; also called FANCA S4L mutant; source: synthetic peptide, bought: Genecust
Q: For B16, which Kd [3] is on record?
A: The Kd was 15 µM.

B17: MITF 258-271 wild-type peptide (peptide)
peptide: SGNLIDLYGNQGLPY
notes: also called MITF Y265C wild-type; source: synthetic peptide, bought: Genecust
Q: How did the Kd [6] turn out when B17 was run?
A: Its Kd is 191 µM.
